Biological target: surface GFP on HeLaM cells (Aequorea victoria, UniProt P42212, F64L/H231L/S65T)
Experimental: (B) Histograms and (C) Bar graphs compare the binding of recombinant soluble TAPBPR (TAPBPR) with recombinant TAPBPR-fused to a nanobody specific for GFP (TAPBPR-GFPNB) to HeLaM cells (left) and HeLaM-pD-GFP cells (right). Histograms show the level of TAPBPR when the two cell lines were incubated with 100 nM protein while bar graphs summarise results using a range of concentrations of protein (0.001-100 nM). […] Each bar represents mean and standard deviation of three independent experiments.

B1: soluble TAPBPR^WT: secreted His-tagged luminal domain of human TAPBPR, lacking transmembrane domain and cytoplasmic tail; SEQ ID NO: 2 (protein)
chain: KPHPAEGQWRAVDVVLDCFLVKDGAHRGALASSEDRARASLVLKQVPVLDDGSLEDFTDFQGGTLAQDDPPIIFEASVDLVQIPQAEALLHADCSGKEVTCEISRYFLQMTETTVKTAAWFMANVQVSGGGPSISLVMKTPRVAKNEVLWHPTLNLPLSPQGTVRTAVEFQVMTQTQSLSFLLGSSASLDCGFSMAPGLDLISVEWRLQHKGRGQLVYSWTAGQGQAVRKGATLEPAQLGMARDASLTLPGLTIQDEGTYICQITTSLYRAQQIIQLNIQASPKVRLSLANEALLPTLICDIAGYYPLDVVVTWTREELGGSPAQVSGASFSSLRQSVAGTYSISSSLTAEPGSAGATYTCQVTHISLEEPLGASTQVVPPERR
modifications: His tag; TAPBPR luminal domain (mature sequence without 21 aa leader sequence)
For B1, the “binding to either of the HeLaM cell lines” value (10 nM recombinant protein) was “did not exhibit any binding” and the “binding to HeLaM cells (lacking GFP)” value (100 nM recombinant protein) was “bound at low levels”.
